The target of this assay is mutant ferritin light chain p.Phe167SerfsX26 (MT-FTL) homopolymer (human) (UniProt P02792). As to the kind of experiment: SEC.

With “mutant ferritin light chain p.Phe167SerfsX26 (MT-FTL) homopolymer (from UniProt P02792 1-166) (natural protein)”, the stoichiometry N – broadly, the number of molecules, sites or subunits per partner or assembly – stood at 24.

The values above are taken from PMC2581579.
